Assay results published in US20140037626A1, “Metal Abstraction Peptide With Release of Metal” (Echogen, Inc., priority 2012, published 2014).
Ends that are not written are not given here.

Key:
[1] = pH-dependent release of nickel from MAP peptides by absorption spectroscopy; assay type: physicochemical; details: FIG. 9; intensity at 415 nm with decreasing pH
Description: The loss of absorbance intensity corresponds to loss of metal from the complex, as the absorption features that are observed for Ni-MAP are due to ligand to metal charge transfer (LMCT) bands and d to d transitions. By monitoring the intensity of one specific peak (415 nm for the pentapteptide) with decreasing pH, the percent of the complex remaining at each pH unit was calculated and plotted (FIG. 9).
pH release experiments were then performed (FIG. 16), and release curves were prepared for each of the six peptides (FIG. 17).

[2] = pH-dependent release of platinum from MAP peptides (absorption, NMR, MS); assay type: physicochemical; details: low pH (pH 2.47 with excess ammonium chloride in FIG. 10)
Description: Because Pt is bound to ammonia and chloride ligands in the common inorganic complex cisplatin, the release experiment was also performed in the presence of excess ammonium chloride. […] Additionally, ^1H NMR of the GGNCC (SEQ ID NO.:1), and Pt-GGNCC (SEQ ID NO.:1) at low pH were all performed.
MS data was obtained at low pH when solvent (DMSO) was added to the peptide-metal complex before dropping the pH, to keep some of the species that result from metal release soluble. Although a small amount of a yellow precipitate formed, the peptide returned to the apo state and remained in solution as determined by MS (FIG. 12). By adding DMSO to the solution, a similar release experiment was performed using absorption spectroscopy. […] The loss of absorbance intensity corresponded to loss of metal from the complex. The loss of intensity was monitored at 315 nm, as this is a significant, yet unique, feature in the Pt-NCC spectral profile, and pH dependent release curve was prepared (FIG. 13).

Substance | pH range in which pH-dependent release of nickel occurs rapidly [1] | precipitation of the Pt-peptide complex at low pH [2]
GNNCC: nickel complex of the pentapeptide GNNCC (SEQ ID NO.:2) (cysteine pairing not given here; also: nickel complex) | 6-7 pH | –
Pt-GGNCC: platinum complex of the pentapeptide GGNCC (SEQ ID NO.:1) (cysteine pairing not given here; also: platinum complex) | – | Precipitation occurred
